Data taken from paper PMC3764826, “Bpur, the Lyme Disease Spirochete's PUR Domain Protein”.

What was measured:
Bpur [1] = biological target: T1, Bpur (Borrelia burgdorferi B31, UniProt O51076 1-122); assay: competition; 100-fold excess vs Bio-1; EMSA: 50 mM Tris pH 7.5, 25 mM KCl, 1 mM MgCl2, 100 nM DTT, 10% glycerol, 0.01% Tween 20, 0.1% PMSF; temperature not stated; RNA/ssDNA probes preheated at 56 C, RiboGuard with RNA; conditions: protein: recombinant; tags: His tag (pET101, nickel purification); chain copies: 2
T1 sequence: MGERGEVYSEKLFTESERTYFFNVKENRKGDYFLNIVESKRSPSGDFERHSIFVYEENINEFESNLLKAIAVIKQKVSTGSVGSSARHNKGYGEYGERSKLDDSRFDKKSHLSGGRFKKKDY

Bpur [2] = biological target: T1, Bpur; assay: EMSA; simultaneous with Bio-2; EMSA: 50 mM Tris pH 7.5, 25 mM KCl, 1 mM MgCl2, 100 nM DTT, 10% glycerol, 0.01% Tween 20, 0.1% PMSF; temperature not stated; RNA/ssDNA probes preheated at 56 C, RiboGuard with RNA; conditions: protein: recombinant; tags: His tag (pET101, nickel purification); chain copies: 2; label: 5' biotin
Bpur [3] = biological target: T1, Bpur; assay: EMSA; 50-500 nM Bpur; EMSA: 50 mM Tris pH 7.5, 25 mM KCl, 1 mM MgCl2, 100 nM DTT, 10% glycerol, 0.01% Tween 20, 0.1% PMSF; temperature not stated; RNA/ssDNA probes preheated at 56 C, RiboGuard with RNA; conditions: protein: recombinant; tags: His tag (pET101, nickel purification); chain copies: 2; label: 5' biotin
Bpur [4] = biological target: T1, Bpur; assay: EMSA; simultaneous with Bio-3; EMSA: 50 mM Tris pH 7.5, 25 mM KCl, 1 mM MgCl2, 100 nM DTT, 10% glycerol, 0.01% Tween 20, 0.1% PMSF; temperature not stated; RNA/ssDNA probes preheated at 56 C, RiboGuard with RNA; conditions: protein: recombinant; tags: His tag (pET101, nickel purification); chain copies: 2; label: 5' biotin
Bpur [5] = biological target: T1, Bpur; assay: EMSA; EMSA: 50 mM Tris pH 7.5, 25 mM KCl, 1 mM MgCl2, 100 nM DTT, 10% glycerol, 0.01% Tween 20, 0.1% PMSF; temperature not stated; RNA/ssDNA probes preheated at 56 C, RiboGuard with RNA; conditions: protein: recombinant, tags: His tag (pET101, nickel purification), chain copies: 2

B1: competitor C (dsDNA)
DNA 1: GTAGTGCATTTGCAATGGAGAGATTTTGGGGAGTTGTTTAAAATTAC
DNA 2: GTAATTTTAAACAACTCCCCAAAATCTCTCCATTGCAAATGCACTAC
binding result (Bpur [1]): binds

B2: Bio-3 (dsDNA)
DNA 1: GGAGAGATTTTGGGGAGTTGTTTAAAATTACATTTGCGTTTTGTTAAAATGTAAC
DNA 2: GTTACATTTTAACAAAACGCAAATGTAATTTTAAACAACTCCCCAAAATCTCTCC
binding result (Bpur [2]): binds

B3: Bio-1 (dsDNA)
DNA 1: GAGTAGTGCATTTGCAATGGAGAGATTTTGGGGAGTTGTTTAAAATTACATTTGCGTTTTGTTAAAATGTAACAGCTGAATGTAACAAAATTATATATTTAAATCTTGAAATA
DNA 2: TATTTCAAGATTTAAATATATAATTTTGTTACATTCAGCTGTTACATTTTAACAAAACGCAAATGTAATTTTAAACAACTCCCCAAAATCTCTCCATTGCAAATGCACTACTC
binding result (Bpur [3]): binds

B4: Bio-2 (dsDNA)
DNA 1: TAAAATTACATTTGCGTTTTGTTAAAATGTAACAGCTGAATGTAAC
DNA 2: GTTACATTCAGCTGTTACATTTTAACAAAACGCAAATGTAATTTTA
binding result (Bpur [4]): no binding

B5: Bio-sense-RNA (ssRNA)
RNA: AAUGGAGAGAUUUUGGGGAGUUGUUUAAAAUUACAUUUGCGUUUUGUUAAAAUG
Kd (Bpur [5]; label: 5' biotin): 13 nM

B6: Bio-dsDNA (dsDNA)
DNA 1: AATGGAGAGATTTTGGGGAGTTGTTTAAAATTACATTTGCGTTTTGTTAAAATG
DNA 2: CATTTTAACAAAACGCAAATGTAATTTTAAACAACTCCCCAAAATCTCTCCATT
Kd (Bpur [5]; label: 5' biotin (one strand), blunt): 130 nM

B7: Bio-sense-ssDNA (ssDNA)
DNA: B6 DNA 1
Kd (Bpur [5]; label: 5' biotin): 390 nM
